Reference: US20120207760A1

What was measured:
Settings in all cases: remark: other sources report otherwise
[1] = target: T1, recombinant homotrimeric HA, A/Wisconsin/67/05 H3N2 (Influenza A virus A/Wisconsin/67/05 (H3N2)); experiment: trimeric HA microarray, transfection set 5
[2] = target: T2, recombinant homotrimeric HA, A/Japan/305/57 H2N2 (Influenza A virus A/Japan/305/57 (H2N2)); experiment: trimeric HA microarray, transfection set 5
[3] = target: T3, recombinant homotrimeric HA, A/California/4/09 H1N1 (Influenza A virus A/California/4/09 (H1N1)); experiment: trimeric HA microarray, transfection set 5
[4] = target: T4, recombinant homotrimeric HA, A/Indonesia/5/05 H5N1 (Influenza A virus A/Indonesia/5/05 (H5N1)); experiment: trimeric HA microarray, transfection set 5
[5] = target: T5, recombinant homotrimeric HA, A/South Carolina/1/18 H1N1 (Influenza A virus A/South Carolina/1/18 (H1N1)); experiment: trimeric HA microarray, transfection set 5
[6] = target: recombinant soluble homotrimeric HA of A/Hong Kong/156/97 - H5N1 (Influenza A virus A/Hong Kong/156/97 (H5N1)); experiment: micro-array; captured IgG, V5-tagged trimeric HA
[7] = target: recombinant soluble homotrimeric HA of A/Anhui/1/05 - H5N1 (Influenza A virus A/Anhui/1/2005 (H5N1)); experiment: micro-array; captured IgG, V5-tagged trimeric HA
[8] = target: recombinant soluble homotrimeric HA of A/northern shoveler/California/HKWF115/2007 - H6N1 (Influenza A virus A/northern shoveler/California/HKWF115/2007 (H6N1)); experiment: micro-array; captured IgG, V5-tagged trimeric HA
[9] = target: recombinant soluble homotrimeric HA of A/northern shoveler/California/HKWF115/07 (Influenza A virus A/northern shoveler/California/HKWF115/2007); experiment: microarray, BCC supernatant IgG, trimeric HA
[10] = target: T6, recombinant homotrimeric HA, A/swine/Ontario/01911-2/99 H4N6 (Influenza A virus A/swine/Ontario/01911-2/99 (H4N6)); experiment: trimeric HA microarray, transfection set 5
[11] = target: T7, recombinant homotrimeric HA, A/Solomon Islands/3/06 H1N1 (Influenza A virus A/Solomon Islands/3/06 (H1N1)); experiment: trimeric HA microarray, transfection set 5
[12] = target: recombinant soluble homotrimeric HA of A/swine/Ontario/01911-2/99 (H4N6) (Influenza A virus A/swine/Ontario/01911-2/99 (H4N6)); experiment: microarray, BCC supernatant IgG, trimeric HA
[13] = target: recombinant soluble homotrimeric HA of A/Hong Kong/1073/99 - H9N2 (Influenza A virus A/Hong Kong/1073/99 (H9N2)); experiment: micro-array; captured IgG, V5-tagged trimeric HA
[14] = target: recombinant homotrimeric HA, A/Vietnam/1203/04 H5N1 (Influenza A virus A/Vietnam/1203/04 (H5N1)); experiment: trimeric HA microarray, transfection set 4
[15] = target: T1, recombinant homotrimeric HA, …; experiment: trimeric HA microarray, transfection set 4
[16] = target: T2, recombinant homotrimeric HA, …; experiment: trimeric HA microarray, transfection set 4
[17] = target: T3, recombinant homotrimeric HA, …; experiment: trimeric HA microarray, transfection set 4
[18] = target: T6, recombinant homotrimeric HA, …; experiment: trimeric HA microarray, transfection set 4
[19] = target: T5, recombinant homotrimeric HA, A/South …; experiment: trimeric HA microarray, transfection set 4
[20] = target: recombinant soluble homotrimeric HA of A/Egypt/3300-NAMRU3/08 - H5N1 (Influenza A virus A/Egypt/3300-NAMRU3/2008 (H5N1)); experiment: micro-array; captured IgG, V5-tagged trimeric HA
[21] = target: recombinant soluble homotrimeric HA of A/duck/Yangzhou/02/05 (H8N4) (Influenza A virus A/duck/Yangzhou/02/2005 (H8N4)); experiment: microarray, BCC supernatant IgG, trimeric HA
[22] = target: recombinant homotrimeric HA, A/northern shoveler/California/HKWF115/07 (Influenza A virus A/northern shoveler/California/HKWF115/2007 (H6N1)); experiment: trimeric HA microarray, transfection set 4
[23] = target: recombinant homotrimeric HA, A/common magpie/Hong Kong/5052/07 H5N1 (Influenza A virus A/common magpie/Hong Kong/5052/07 (H5N1)); experiment: trimeric HA microarray, transfection set 4
[24] = target: recombinant homotrimeric HA, A/Hong Kong/1073/99 H9N2 (Influenza A virus A/Hong Kong/1073/99 (H9N2)); experiment: trimeric HA microarray, transfection set 4
[25] = target: T4, recombinant homotrimeric HA, …; experiment: trimeric HA microarray, transfection set 4
[26] = target: recombinant homotrimeric HA, A/duck/Yangzhou/02/05 H8N4 (Influenza A virus A/duck/Yangzhou/02/2005 (H8N4)); experiment: trimeric HA microarray, transfection set 4
[27] = target: recombinant homotrimeric HA, A/chicken/Vietnam/NCVD-016/08 H5N1 (Influenza A virus A/chicken/Vietnam/NCVD-016/08 (H5N1)); experiment: trimeric HA microarray, transfection set 4
[28] = target: T7, recombinant homotrimeric HA, A/Solomon …; experiment: trimeric HA microarray, transfection set 4
[29] = target: recombinant homotrimeric HA, A/Egypt/3300-NAMRU3/08 H5N1 (Influenza A virus A/Egypt/3300-NAMRU3/08 (H5N1)); experiment: trimeric HA microarray, transfection set 4
[30] = target: recombinant homotrimeric HA, A/Hong Kong/2108/03 H9N2 (Influenza A virus A/Hong Kong/2108/03 (H9N2)); experiment: trimeric HA microarray, transfection set 4

Row | Binder | Trimeric HA Binding RLU [1] [RLU] | Trimeric HA Binding RLU [2] [RLU] | Trimeric HA Binding RLU [3] [RLU] | Trimeric HA Binding RLU [4] [RLU] | Trimeric HA Binding RLU [5] [RLU] | Trimeric HA Binding RLU [10] [RLU] | Trimeric HA Binding RLU [11] [RLU] | Trimeric HA Binding RLU [14] [RLU] | Trimeric HA Binding RLU [15] [RLU] | Trimeric HA Binding RLU [16] [RLU] | Trimeric HA Binding RLU [17] [RLU] | Trimeric HA Binding RLU [19] [RLU] | other results
1 | TCN-545 (5082_I15) (antibody, V domains shown) VH: QVQLQQWGAGLLKPSETLSLSCAVFGGSFSDYYWTWIRQPPGKGLEWIGEIKHSGRTNYNPSLESRVTISVDTSKNQFSLKLSSVTAADTAIYYCARGTDPDTEGYCRSGSCSAFDFWGQGTLVTVSS VL: EIVLTQSPGTLSLSPGERATLSCRASHFVNYRSLAWYQQTPGQVPRLLIYGASTRATGIPDRFSGSGSGTDFTLTISRLEPEDFAVYFCQQYGGSPRYTFGQGTRLEIK | 32000 | 1360 | 818 | 5270 | 900 |  |  |  |  |  |  |  | Trimeric HA Binding: RLU [6]: 1560 RLU; Trimeric HA Binding: RLU [7]: 4880 RLU; Trimeric HA Binding: RLU [8]: 2320 RLU; Trimeric HA Binding: RLU [9]: 1170 RLU
2 | TCN-555 (5246_L16) (antibody, V domains shown) VH: QVQLVQSGAEVKRPGSSVKVSCTASGGIFRKNAISWVRQAPGQGLEWMGGIIAVFNTANYAQKFQNRVKITADESGNTAYMELSSLTSDDTAVYYCASHPKYFYGSGSYPDFWGQGTLVTVSS VL: QSALTQPRSVSGSPGQSITISCTGGSSDIGASNSVSWYQQHPGKAPKLVIFDVTERPSGVPHRFSGSKSGNTASLTVSGLQPDDEADYFCCAYGGKYLVVFGGGTKVTVL | 14700 | 16700 | 20200 | 33900 | 48000 | 4520 | 44600 |  |  |  |  |  | Trimeric HA Binding: RLU [12]: 1950 RLU
3 | TCN-536 (5095_N01) (antibody, V domains shown) VH: QVQLQQWGAGLLKPSETLSLTCAVYGGSFSVSGYYWSWIRQPPGRGLEWIGEISHGGSTNYNPSLKSRVTISVDTTKNQFSLRLSSVTAADTAVYYCARGTDPDTEVYCRVGNCAAFDYWGQGSLVTVSS VL: EIILAQSPGTLSLSPGERATLSCRASQFVSTRSLAWYQQRPGQAPRLLIYGASSRATGIPDRFSGSGSGTDFTLTISRLEPEDFAVYYCQHYGYSPRYAFGQGSKVEIK |  |  |  |  |  |  |  | 182 | 20600 | 260 | 49 | 39 | Trimeric HA Binding: RLU [13]: 115 RLU; Trimeric HA Binding RLU [18]: 168 RLU
4 | TCN-539 (5056_A08) (antibody, V domains shown) VH: QVQLVESGGGVVQPGRSLRLSCAASEITFITYAMHWVRQAPGKGLEWVALISDDGSNKFYADSVKGRFTISRDNSKNTLYLQMNSLRAEDTAAYYCAREGVYFDSGTYRGYFDYWGQETLVTVSS VL: EIVLTQSPATLSLSPGERATLSCRASQSVSSYLAWYQQKPGQAPRLLIYDASNRATGIPARFSGSGSGTDFTLTISSLEPEDFAVYYCQQRSHWPPITFGQGTRLEIK | 58800 | 2560 |  |  | 5330 | 6510 | 871 |  |  |  |  |  | Trimeric HA Binding: RLU [20]: 24300 RLU; Trimeric HA Binding: RLU [21]: 1490 RLU
5 | TCN-535 (5246_P19) (antibody, V domains shown) VH: QVQLVQSGSEVKKPGTSVKVSCTASGSVFTNYGISWVRQAPGQGLEWMGGIIPLFGAAKYAQKFQGRVTITADESTKTVYMELSRLTSKDTAIYFCAKAPRVYEYYFDQWGQGTPVTVSS VL: EIVLTQSPGTLSLSPGERATLSCRASQSVSSSQLAWYQQKPGQAPRLIIYGASTRATGIPDRFSGSGSGTDFTLTIGRLEPEDFAVFFCQQYSTSPPTFGQGTKVDFK |  |  |  |  |  |  |  | 25200 | 4450 | 21500 | 25200 | 22400 | Trimeric HA Binding RLU [22]: 18100 RLU; Trimeric HA Binding RLU [23]: 477 RLU; Trimeric HA Binding RLU [24]: 21200 RLU; Trimeric HA Binding RLU [25]: 18200 RLU; Trimeric HA Binding RLU [26]: 428 RLU; Trimeric HA Binding RLU [27]: 20900 RLU; Trimeric HA Binding RLU [28]: 836 RLU; Trimeric HA Binding RLU [29]: 25300 RLU; Trimeric HA Binding RLU [30]: 18 RLU
